Experimental data published in IntAct's records for PubMed 11412997.

Target: par6_caeel par-6 (UniProt Q9NAN2)
Sequence (Q9NAN2 whole entry): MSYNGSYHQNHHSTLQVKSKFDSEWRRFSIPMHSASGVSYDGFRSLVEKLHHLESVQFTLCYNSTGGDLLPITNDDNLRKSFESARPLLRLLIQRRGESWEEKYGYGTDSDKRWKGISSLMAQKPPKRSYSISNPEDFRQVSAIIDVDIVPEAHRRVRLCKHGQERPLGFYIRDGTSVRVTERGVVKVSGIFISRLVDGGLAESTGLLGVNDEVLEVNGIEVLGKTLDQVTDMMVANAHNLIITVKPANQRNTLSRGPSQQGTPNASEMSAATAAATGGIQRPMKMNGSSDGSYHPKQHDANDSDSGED

Sequence of Cell division control protein 42 homolog (Caenorhabditis elegans), Q05062 T17N (Q05062 whole entry T17N): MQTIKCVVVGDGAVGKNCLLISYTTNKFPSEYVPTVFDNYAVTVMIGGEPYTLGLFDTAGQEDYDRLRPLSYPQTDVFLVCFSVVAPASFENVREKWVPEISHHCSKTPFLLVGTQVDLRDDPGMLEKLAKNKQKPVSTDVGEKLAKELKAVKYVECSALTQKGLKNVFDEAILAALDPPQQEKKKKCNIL

Substance: Cell division control protein 42 homolog (Caenorhabditis elegans), Q05062 T17N
- effect of a mutation on the interaction: disrupting interaction
